# Assay: soluble on expression in E. coli; label from the status in PepcDB or PDB records
row,Sequence,soluble on expression in E. coli
1,MLVGLIGYGAIGKFLAEWLERNGFEIAAILDVRGEHEKMVRGIDEFLQREMDVAVEAASQQAVKDYAEKILKAGIDLIVLSTGAFADRDFLSRVREVCRKTGRRVYIASGAIGGLDAIFSASELIEEIVLTTRKNWRQFGRKGVIFEGSASEAAQKFPKNLNVAATLSIASGKDVKVRLVADEVEENIHEILVRGEFGEMEIRVRNRPMRENPKTSYLAALSVTRILRNLKEGLVV,soluble
2,MGSDKIHHHHHHMSQLEKAQAEYAGFIQEFQSAIISTISEQGIPNGSYAPFVIDDAKNIYIYVSGLAVHTKNIEANPLVNVLFVDDEAKTNQIFARRRLSFDCTATLIERESQKWNQVVDQFQERFGQIIEVLRGLADFRIFQLTPKEGRFVIGFGA,soluble
3,HHHHHHSEEEAIQIIADPPLPPASFTLRDYVDHSETLQKLVLLGVDLSKIEKHPEAANLLLRLDFEKDIKQMLLFLKDVGIEDNQLGAFLTKNHAIFSEDLENLKTRVAYLHSKNFSKADVAQMVRKAPFLLNFSVERLDNRLGFFQKELELSVKKTRDLVVRLPRLLTGSLEPVKENMKVYRLELGFKHNEIQHMITRIPKMLTANKMKLTETFDFVHNVMSIPHHIIVKFPQVFNTRLFKVKERHLFLTYLGRAQYDPAKPNYISLDKLVSIPDEIFCEEIAKASVQDFEKFLKTL,soluble
4,SEVDINGDSRSTLTTLPLPVAEGSSPGKAEAEKPRCSSTPCSPMRRTVSGYQILHMDSNYLVGFTTGEELLKLAQKCTGGEDSKGEAMPALRAKQLDTGLARSSRLYKTRSRYYQPYEIPAVNGRRRRRMPSSGDKCTKPLPYEPYKALHGPLPLCLLKGKRAHSKSLDYLNLDKMNIKEPADTEVLQYQLQHLTLRGDRVFARNNT,not soluble
5,MSAIEVTADAASTWDWPLQHNDGVVKVHNTKEKFEVGLDVQFFTPKEIEVKVSGQELLIHCRHETRSDNHGTVAREINRAYKLPDDVDVSTVKSHLATRGVLTITASKKA,soluble
6,MGDIMRPIPFEELLTRIFDEYQQQRSIFGIPEQQFYSPVKGKTVSVFGETCATPVGPAAGPHTQLAQNIVTSWLTGGRFIELKTVQILDRLELEKPCIDAEDECFNTEWSTEFTLLKAWDEYLKAWFALHLLEAMFQPSDSGKSFIFNMSVGYNLEGIKQPPMQQFIDNMMDASDHPKFAQYRDTLNKLLQDDAFLARHGLQEKRESLQALPARIPTSMVHGVTLSTMHGCPPHEIEAICRYMLEEKGLNTFVKLNPTLLGYARVREILDVCGFGYIGLKEESFDHDLKLTQALEMLERLMALAKEKSLGFGVKLTNTLGTINNKGALPGEEMYMSGRALFPLSINVAAVLSRAFDGKLPISYSGGASQLTIRDIFDTGIRPITMATDLLKPGGYLRLSACMRELEGSDAWGLDHVDVERLNRLAADALTMEYTQKHWKPEERIEVAEDLPLTDCYVAPCVTACAIKQDIPEYIRLLGEHRYADALELIYQRNALPAITGHICDHQCQYNCTRLDYDSALNIRELKKVALEKGWDEYKQRWHKPAGSGSRHPVAVIGAGPAGLAAGYFLARAGHPVTLFEREANAGGVVKNIIPQFRIPAELIQHDIDFVAAHGVKFEYGCSPDLTIEQLKNQGFHYVLIATGTDKNSGVKLAGDNQNVWKSLPFLREYNKGTALKLGKHVVVVGAGNTAMDCARAALRVPGVEKATIVYRRSLQEMPAWREEYEEALHDGVEFRFLNNPERFDADGTLTLRVMSLGEPDEKGRRRPVETNETVTLLVDSLITAIGEQQDTEALNAMGVPLDKNGWPDVDHNGETRLTDVFMIGDVQRGPSSIVAAVGTARRATDAILSRENIRSHQNDKYWNNVNPAEIYQRKGDISITLVNSDDRDAFVAQEAARCLECNYVCSKCVDVCPNRANVSIAVPGFQNRFQTLHLDAYCNECGNCAQFCPWNGKPYKDKITVFSLAQDFDNSSNPGFLVEDCRVRVRLNNQSWVLNIDSKGQFNNVPPELNDMCRIISHVHQHHHYLLGRVEV,soluble
7,MRESHNVLPPVAPVRPITRTHHGIDFVDNYEWLRDKENPETIQYLEAENAFVEQQTAHLSQLKDNIYHEIKSRVKETDMSVPQRAGDFWYYGRSVEGKSYGYSCRIPVSEGADAWVPPTIPEREPVAGEQIILDANELAEGHEFFALGASTVTTSGRYLAYSVDTEGDERFTLRVKDLATGEHLADEIPDVFYGATWAGEEYLFYQRVDAAWRPDSVWRHKIGTDPATDVQVFHEADERFNTGVGATRSERFLMIESASKITSEIWVLDLDNPTGDFRCVLPRQAGVEYDIDHAVVAGRDTWIVTHNAAGPNFEVGWTPVTDEEISLDSLEVLVPHRDEVRIEGVDTYRDHIVLAYRSGAIGRAAVMQLNADGFGTFEEITFDEELYTIGVGGHPEWDTPVVRMVYVSFTQPSQVFDYWIADGRRTLLKQQEVVGGYNADDYTASRLWVEAHDGVRIPVSLIHRSDLDLSKPNPTLLYGYGSYESSIDPGFSIARLSLMDRGMVFAIAHVRGGGEMGRGWYDTGKTVTKKNTFTDFIAVADHLIEHGVTTSEMLVAEGGSAGGMLMGAVANMAGDRFKAIEAVVPFVDPLTSMLMPELPLTVTEWDEWGDPLHDVDVYNYMASYAPYENIEAKAYPNILAVTSLNDTRVLYVEPAKWIAQLRATATGGQFLLKTEMSAGHGGVSGRYEKWKQTAFEYAWLCHQATGKES,not soluble
8,MSLGTMSTEATLLERCQSQCELCAASTPLSPFVVAPHALVTVDHAVMLCDTCKGQIENPETVDMNHWRCLNDSMWSQVQPVQVLAWRQLKRISETEGWARDLLDMMYLDEETAKWAEIGMDDDAEKPRDVNGVELKKGDDVTVIKDLPVKGSSMVIKQGTAVRGIALTEDPKHIQGKVNGQTMYIIAEYCRKKEGGSHHHHHH,soluble
9,MPLGLFSSGKAQVLCDEKIPGGKKKEPKQLSENKCKGVTLKLDHTRVTIEKQIAEGGFAIVYVASDRKNNKFALKRQFTKDNEKQLEACCREHSFLKQCIGHKNIVEFVDSYTNCLGNGIWECMLLTEYHQKNVLQLMNERISQNQYLTNDEILSIFTDLCEAVSFIHNRPQPIIHRDLKVENVLISSHKPPHYVLCDFGSATTQILSVEKYGVEYVKSEVERNTTMCYRSPEMIDFYSGLEIGLKSDIWALGVLLYRLCFFCVPFEESPLAIQSVNYQFPSVPNIPDEIKVLIYMLLDIDVNRRPSIYQTSVLAFEANHRKPLSEEIQNKKCTDAVPSLKSCIQLMRDGSNPRNKRDSSPRNPEAPPIQSSSKMASLSQQVPSISNISMPSGSGTVETSVAPRLRPKATTVVPNVPSISPVPPVGLPHLRLPSKGSTDETDGSQVRKVPIDFHHRQSFSGEEQLKPAAEADSAGPLSCPLIKPTDLGFTDLDKPALPRDRAQTDGKRRLPHESDIIFQQQHRRNVSDTSQISRSAFKPYSSQQTTSKTSSQVVRSVEDMSQRQNGGSGEWNPFLVAPFSNNSISRKDGQESAFMMDDSHFGMVFDEIRRKEIPAELDSETSSIDSRDPFGAAPFDQLTVSTSSSAQPVSLPPGSVHLHTSIAPSPLLRHVLTKAPPPVPRRTTSRGFQV,not soluble
10,MRASRKRLHTTNLRWNMSQKHWSKVQLLHEVVKNPNIIIKGKHSYYSDCWDAGFEASVVRYLHGDEISQRWDPLWEIDQLVIGDYVCIGAEVVILMGGNHTHRADWFCLYPFMDVIEQAYVGKGNTEIGDGAWLGMRAMIMPGVKIGEGAIVAANSVVTKDVAPYSIVAGSPAQLVKYRFDAKVIDELLALKVYDWPPEKFTALKSYLCALDLAALKQAVIQYDAEPHNPLS,not soluble
11,MDPSMYPGASATYLSYPQQNASQDYLGAYAAQTTTTTRNTANGSTSSDHLLGDPSSSCSPRETSPSTTSLVLTIRLLMQGKEVGSIIGKKGDQIKKIREESGAKINISDGSCPERIVTITGTLGVIGKAFNMVCNKFEEDMLLLPNSVPKPPITMRVIVPATQCGSLIGKGGSKIKDIREATGASIQVASEMLPHSTERAVTLSGTADAINLATSLKIPGSTKRLHNHIPPKTNVQPIGNRHVSGYNCRTTTTGTGSTATRRGSTYGWRTGTGVQVQQQLVTNALLQQHQFAAVQQELAARAALFNQQLMMPGQQQQASQAQEVYLGQHGLIYTANGVQLGGQDNSKAMEAGAAAAAAAQWQGYDMAAMQQQQQQQQQLLNQYALNQSMLIGAPFMKGGPTPPGTTSGKATSSGASAQGAATSSARFHPY,not soluble
12,RYLLQRKASEALEVEVVDTWQADAVRDTRTLSGGESFLVSLALALALSDLVSHKTRIDSLFLDEGFGTLDSETLDTALDALDALNASGKTIGVISHVEAMKERIPVQIKVKKINGLGYSKLESAFAMK,not soluble
13,MGHHHHHHSHMIQPRLLADAIVLFTSSQEEVTLAVTPLNFCLKSSNEESMDLSNAVHSEMFVGSDEFDFFQIGMDTEITFCFKELKGILTFSEATHAPISIYFDFPGKPLALSIDDMLVEANFILATLADEQSRASSPQSLCLSQKRKRSDLIEKKAGKNVTGQALECISKKAAPRRLYPKETLTNISALENCGSPAMKRVDGDVSEVSESSVSNTEEVPGSLCLRKFSCMFFGAVSSDQQEHFNHPFDSLARASGSEEDMNNVCCRKEFNGSDAEYFCII,not soluble
14,MSILVTRPSPAGEELVSRLRTLGQVAWHFPLIEFSPGQQLPQLADQLAALGESDLLFALSQHAVAFAQSQLHQQDRKWPRLPDYFAIGRTTALALHTVSGQKILYPQDREISEVLLQLPELQNIAGKRALILRGNGGRELIGDTLTARGAEVTFCECYQRCAIHYDGAEEAMRWQAREVTMVVVTSGEMLQQLWSLIPQWYREHWLLHCRLLVVSERLAKLARELGWQDIKVADNADNDALLRALQLEHHHHHH,not soluble
15,MGHHHHHHSHMSGTEEAILGGRDSHPAAGGGSVLCFGQCQYTAEEYQAIQKALRQRLGPEYISSRMAGGGQKVCYIEGHRVINLANEMFGYNGWAHSITQQNVDFVDLNNGKFYVGVCAFVRVQLKVRGWSRPAARKDQWVVGEGWFIS,not soluble
16,MEQCNERPKVSVIIPVYNTCNYVQEALESICQQTLEELEIIVIDDGSTDCSRAIVEEIAIKDTRIQVYKQSNQGLSITRNQGLKFSTGEYIYFMDSDDFLEPDALELCYRKCTKEALDFVFFDAETFTIEPNIPESSFDYQRTLDLPEKICSGIDMLKTQLKTYKFKSSVCLNLFHREFICEERLSFYPGILHEDQLFMIQAYLHASKTGFIRRSFFHRRIRTNSIMTKKFTWKNMEGYLTVTNELLRELPIYPKTYHHTIFFFLRQMLDAAVWQAHTLSLPQRIKLFSLCLKYYRPYVTMRTLMVLLLKTSIHPRQ,soluble
17,MAAALPRTLGELQLYRILQKANLLSYFDAFIQQGGDDVQQLCEAGEEEFLEIMALVGMASKPLHVRRLQKALRDWVTNPGLFNQPLTSLPVSSIPIYKLPEGSPTWLGISCSSYERSSNAREPHLKIPKCAATTCVQSLGQGKSDVVGSLALQSVGESRLWQGHHATESEHSLSPADLGSPASPKESSEALDAAAALSVAECVERMAPTLPKSDLNEVKELLKTNKKLAKMIGHIFEMNDDDPHKEEEIRKYSAIYGRFDSKRKDGKHLTLHELTVNEAAAQLCVKDNALLTRRDELFALARQISREVTYKYTYRTTKSKCGERDELSPKRIKVEDGFPDFQDSVQTLFQQARAKSEELAALSSQQPEKVMAKQMEFLCNQAGYERLQHAERRLSAGLYRQSSEEHSPNGLTSDNSDGQGERPLNLRMPNLQNRQPHHFVVDGELSRLYPSEAKSHSSESLGILKDYPHSAFTLEKKVIKTEPEDSR,soluble
18,MAGFSVNSPKARKSDQELVAGVLEDKKQFAAIVQRYEEPLFRYIVRQGARDRELARDILQEVFIKVYLHLNDYDASLPFSSWIYRIAHNETITHFRKEKNRPLVLDKGDDDEFFGKIVDDLELSRADGQYDVSDIQTVLERLEPRYRDILVLKFFEDKSYEEISDILQMPQGTVATLINRAKKKVKASLEKN,not soluble

# From the DeepSol protein solubility set
